Test results reported in patent US20190077860A1 (EISAI R AND D MANAGEMENT, published 2019).

T1: human EphA1 extracellular region-SEAP-His protein (human, UniProt P21709 26-547)
T1 construct: extracellular domain; also called hEphA1-SEAP-His
T1 sequence (looked up): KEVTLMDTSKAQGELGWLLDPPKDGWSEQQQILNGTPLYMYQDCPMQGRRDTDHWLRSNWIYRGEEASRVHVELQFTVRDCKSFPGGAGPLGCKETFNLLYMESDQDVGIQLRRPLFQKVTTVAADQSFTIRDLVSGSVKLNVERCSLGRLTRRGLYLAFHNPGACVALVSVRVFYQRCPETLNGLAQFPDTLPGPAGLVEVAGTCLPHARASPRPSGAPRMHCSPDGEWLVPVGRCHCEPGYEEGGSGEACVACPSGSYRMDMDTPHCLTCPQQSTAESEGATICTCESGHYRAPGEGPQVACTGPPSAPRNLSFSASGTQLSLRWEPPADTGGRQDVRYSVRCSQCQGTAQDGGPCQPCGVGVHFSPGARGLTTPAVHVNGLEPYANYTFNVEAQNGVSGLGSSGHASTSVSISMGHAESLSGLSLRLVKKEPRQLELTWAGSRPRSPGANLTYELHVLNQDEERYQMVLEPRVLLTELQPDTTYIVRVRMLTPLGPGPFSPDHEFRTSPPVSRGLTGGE

T2: human EphA7 extracellular region-SEAP-His protein (human, UniProt Q15375 28-555)
T2 construct: extracellular domain; also called hEphA7-SEAP-His
T2 sequence (looked up): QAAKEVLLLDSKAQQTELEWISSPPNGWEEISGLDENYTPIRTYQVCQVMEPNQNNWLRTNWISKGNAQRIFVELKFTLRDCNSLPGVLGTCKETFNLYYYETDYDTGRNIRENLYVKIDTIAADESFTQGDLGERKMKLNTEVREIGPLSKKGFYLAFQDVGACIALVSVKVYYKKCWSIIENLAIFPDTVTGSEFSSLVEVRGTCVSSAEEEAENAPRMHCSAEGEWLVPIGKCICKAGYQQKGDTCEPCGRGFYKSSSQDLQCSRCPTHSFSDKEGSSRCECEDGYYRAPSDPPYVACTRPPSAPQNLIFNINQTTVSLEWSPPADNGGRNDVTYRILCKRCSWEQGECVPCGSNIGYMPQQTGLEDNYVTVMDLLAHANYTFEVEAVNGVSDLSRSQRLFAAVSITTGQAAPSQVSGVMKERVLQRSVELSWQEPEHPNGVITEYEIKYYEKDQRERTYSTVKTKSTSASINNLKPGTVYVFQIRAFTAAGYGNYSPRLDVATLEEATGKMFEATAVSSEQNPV

T3: human EphA10 extracellular region-SEAP-His protein (human, UniProt Q5JZY3 34-565)
T3 construct: extracellular domain; also called hEphA10-SEAP-His
T3 sequence (looked up): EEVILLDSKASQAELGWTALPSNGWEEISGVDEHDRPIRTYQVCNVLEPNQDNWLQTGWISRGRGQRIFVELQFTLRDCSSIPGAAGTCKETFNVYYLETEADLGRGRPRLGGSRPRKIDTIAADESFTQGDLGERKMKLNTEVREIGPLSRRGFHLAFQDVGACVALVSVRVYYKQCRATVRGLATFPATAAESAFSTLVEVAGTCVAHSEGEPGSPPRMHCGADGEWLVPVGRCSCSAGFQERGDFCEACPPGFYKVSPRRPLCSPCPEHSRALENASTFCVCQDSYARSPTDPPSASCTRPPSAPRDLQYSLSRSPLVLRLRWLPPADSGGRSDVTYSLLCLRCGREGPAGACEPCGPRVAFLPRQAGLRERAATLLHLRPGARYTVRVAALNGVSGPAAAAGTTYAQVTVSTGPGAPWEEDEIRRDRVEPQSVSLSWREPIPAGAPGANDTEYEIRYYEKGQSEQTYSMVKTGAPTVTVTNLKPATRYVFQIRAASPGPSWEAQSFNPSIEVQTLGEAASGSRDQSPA

T4: human EphB6 extracellular region-SEAP-His protein (human, UniProt O15197 32-594)
T4 construct: extracellular domain; also called hEphB6-SEAP-His
T4 sequence (looked up): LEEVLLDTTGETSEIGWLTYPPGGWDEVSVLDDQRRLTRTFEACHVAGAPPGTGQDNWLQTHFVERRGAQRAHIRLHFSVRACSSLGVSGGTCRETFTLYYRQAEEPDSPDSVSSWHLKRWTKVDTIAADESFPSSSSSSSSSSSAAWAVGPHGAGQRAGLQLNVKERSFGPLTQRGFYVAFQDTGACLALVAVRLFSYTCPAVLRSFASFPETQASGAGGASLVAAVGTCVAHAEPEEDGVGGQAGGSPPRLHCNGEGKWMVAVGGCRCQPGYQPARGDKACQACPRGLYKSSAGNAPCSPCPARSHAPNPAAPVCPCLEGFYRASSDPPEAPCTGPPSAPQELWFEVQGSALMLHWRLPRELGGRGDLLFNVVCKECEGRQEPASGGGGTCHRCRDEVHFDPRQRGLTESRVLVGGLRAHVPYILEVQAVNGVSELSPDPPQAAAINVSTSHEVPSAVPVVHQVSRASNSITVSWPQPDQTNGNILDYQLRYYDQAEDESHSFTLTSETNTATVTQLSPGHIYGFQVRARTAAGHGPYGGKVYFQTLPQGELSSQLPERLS


Key:
Test in all cases: ELISA
SEAP-His = SEAP-His (UniProt P05187 23-511)
SEAP-His, sequence (P05187 23-511): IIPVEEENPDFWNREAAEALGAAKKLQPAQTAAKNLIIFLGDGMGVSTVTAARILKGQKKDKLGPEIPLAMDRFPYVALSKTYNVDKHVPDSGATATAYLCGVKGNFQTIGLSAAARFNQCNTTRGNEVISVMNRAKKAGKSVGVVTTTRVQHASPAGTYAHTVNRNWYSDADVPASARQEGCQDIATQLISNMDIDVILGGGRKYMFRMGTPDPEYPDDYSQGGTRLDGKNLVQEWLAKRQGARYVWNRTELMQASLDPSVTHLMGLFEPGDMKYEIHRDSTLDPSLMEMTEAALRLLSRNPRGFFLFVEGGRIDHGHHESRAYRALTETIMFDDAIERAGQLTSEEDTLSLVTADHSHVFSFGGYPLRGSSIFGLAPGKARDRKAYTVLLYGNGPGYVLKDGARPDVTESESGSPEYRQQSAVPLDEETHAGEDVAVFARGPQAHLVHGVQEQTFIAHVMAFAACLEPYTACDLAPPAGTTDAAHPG

[1] = molecular target: T1, human EphA1 extracellular …
[2] = molecular target: T5, human EphA5 extracellular region-SEAP-His protein (human, UniProt P54756 25-573)
T5 construct: extracellular domain; also called hEphA5-SEAP-His
T5 sequence (P54756 25-573): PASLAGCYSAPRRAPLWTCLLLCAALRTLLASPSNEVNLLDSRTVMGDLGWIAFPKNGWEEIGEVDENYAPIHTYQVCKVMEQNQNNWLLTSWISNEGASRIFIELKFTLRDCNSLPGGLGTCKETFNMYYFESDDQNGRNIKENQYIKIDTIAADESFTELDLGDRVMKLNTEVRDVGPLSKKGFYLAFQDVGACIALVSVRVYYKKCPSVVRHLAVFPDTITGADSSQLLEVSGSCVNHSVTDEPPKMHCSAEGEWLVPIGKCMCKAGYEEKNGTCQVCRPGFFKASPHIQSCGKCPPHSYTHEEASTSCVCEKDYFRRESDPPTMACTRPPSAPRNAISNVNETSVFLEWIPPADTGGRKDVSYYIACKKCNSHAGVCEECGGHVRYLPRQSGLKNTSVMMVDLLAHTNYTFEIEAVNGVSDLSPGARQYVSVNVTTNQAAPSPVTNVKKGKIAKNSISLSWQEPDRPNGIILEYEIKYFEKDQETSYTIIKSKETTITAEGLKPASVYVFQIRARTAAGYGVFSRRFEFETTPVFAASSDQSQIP

[3] = molecular target: T2, human EphA7 extracellular …
[4] = molecular target: T3, human EphA10 extracellular …
[5] = molecular target: T4, human EphB6 extracellular …

Binder | A450 as % of hEphA4-SEAP-His (SEAP-His) | A450 as % of hEphA4-SEAP-His [1] | A450 as % of hEphA4-SEAP-His [2] | A450 as % of hEphA4-SEAP-His [3] | A450 as % of hEphA4-SEAP-His [4] | A450 as % of hEphA4-SEAP-His [5]
humanized antibody No. 157 (antibody, human IgG2, human Ig kappa; also called L1-6/HA1) heavy: QVQLVQSGSELKKPGASVKVSCKASGYTFTDYSMHWVRQAPGQGLEWMGWINTETGEPTYAQGFTGRFVFSLDTSVSTAYLQISSLKAEDTAVYYCARIPLYYYGSRYWYFDVWGQGTTVTVSSASTKGPSVFPLAPSSRSTSESTAALGCLVKDYFPEPVTVSWNSGALTSGVHTFPAVLQSSGLYSLSSVVTVPSSNFGTQTYTCNVDHKPSNTKVDKTVERKSCVECPPCPAPPAAAPSVFLFPPKPKDTLMISRTPEVTCVVVDVSHEDPEVQFNWYVDGVEVHNAKTKPREEQFNSTFRVVSVLTVVHQDWLNGKEYKCKVSNKGLPAPIEKTISKTKGQPREPQVYTLPPSREEMTKNQVSLTCLVKGFYPSDIAVEWESNGQPENNYKTTPPMLDSDGSFFLYSKLTVDKSRWQQGNVFSCSVMHEALHNHYTQKSLSLSPG light: DIQMTQSPSSLSASVGDRVTITCRASENIYRNLAWYQQKPGKAPQLLLYAATNLADGVPSRFSGSGSGTDYTLTISSLQPEDFATYYCQHFWGTPWTFGQGTKVEIKRTVAAPSVFIFPPSDEQLKSGTASVVCLLNNFYPREAKVQWKVDNALQSGNSQESVTEQDSKDSTYSLSSTLTLSKADYEKHKVYACEVTHQGLSSPVTKSFNRGEC | 6.1% | 6.2% | 6.1% | 6% | 6.1% | 6.3%
humanized antibody No. 158 (antibody, human IgG2, human Ig kappa; also called L1-6/HA2) heavy: QVQLVQSGSELKKPGASVKVSCKASGYTFTDYSMHWVRQAPGQGLKWMGWINTETGEPTYAQGFTGRFVFSLDTSVSTAYLQISSLKAEDTAVYYCARIPLYYYGSRYWYFDVWGQGTTVTVSSASTKGPSVFPLAPSSRSTSESTAALGCLVKDYFPEPVTVSWNSGALTSGVHTFPAVLQSSGLYSLSSVVTVPSSNFGTQTYTCNVDHKPSNTKVDKTVERKSCVECPPCPAPPAAAPSVFLFPPKPKDTLMISRTPEVTCVVVDVSHEDPEVQFNWYVDGVEVHNAKTKPREEQFNSTFRVVSVLTVVHQDWLNGKEYKCKVSNKGLPAPIEKTISKTKGQPREPQVYTLPPSREEMTKNQVSLTCLVKGFYPSDIAVEWESNGQPENNYKTTPPMLDSDGSFFLYSKLTVDKSRWQQGNVFSCSVMHEALHNHYTQKSLSLSPG light: DIQMTQSPSSLSASVGDRVTITCRASENIYRNLAWYQQKPGKAPQLLLYAATNLADGVPSRFSGSGSGTDYTLTISSLQPEDFATYYCQHFWGTPWTFGQGTKVEIKRTVAAPSVFIFPPSDEQLKSGTASVVCLLNNFYPREAKVQWKVDNALQSGNSQESVTEQDSKDSTYSLSSTLTLSKADYEKHKVYACEVTHQGLSSPVTKSFNRGEC | 6.3% | 6.5% | 6.7% | 6.3% | 6.4% | 6.3%
humanized antibody No. 159 (antibody, human IgG2, human Ig kappa; also called L1-6/HK2) heavy: QVQLVQSGSELKKPGASVKVSCKASGYTFTDYSMHWVRQAPGQGLKWMGWINTETGEPTYADDFKGRFVFSLDTSVSTAYLQISSLKAEDTAVYYCARIPLYYYGSRYWYFDVWGQGTTVTVSSASTKGPSVFPLAPSSRSTSESTAALGCLVKDYFPEPVTVSWNSGALTSGVHTFPAVLQSSGLYSLSSVVTVPSSNFGTQTYTCNVDHKPSNTKVDKTVERKSCVECPPCPAPPAAAPSVFLFPPKPKDTLMISRTPEVTCVVVDVSHEDPEVQFNWYVDGVEVHNAKTKPREEQFNSTFRVVSVLTVVHQDWLNGKEYKCKVSNKGLPAPIEKTISKTKGQPREPQVYTLPPSREEMTKNQVSLTCLVKGFYPSDIAVEWESNGQPENNYKTTPPMLDSDGSFFLYSKLTVDKSRWQQGNVFSCSVMHEALHNHYTQKSLSLSPG light: DIQMTQSPSSLSASVGDRVTITCRASENIYRNLAWYQQKPGKAPQLLLYAATNLADGVPSRFSGSGSGTDYTLTISSLQPEDFATYYCQHFWGTPWTFGQGTKVEIKRTVAAPSVFIFPPSDEQLKSGTASVVCLLNNFYPREAKVQWKVDNALQSGNSQESVTEQDSKDSTYSLSSTLTLSKADYEKHKVYACEVTHQGLSSPVTKSFNRGEC | 5.3% | 5.4% | 5.5% | 5.5% | 5.3% | 5.5%
